Legend:
HIV-2 capsid (CA) = HIV-2 capsid (CA) (UniProt P04590)
[1] = tested on: HIV-1 capsid (CA), wild type, newly synthesized from HIVGFP (NL4-3 derived)
[2] = biological target: HIV-1 capsid mutant G89V (pLaiΔEnv-GFP3 G89V) (UniProt P03348)

Q: Which results are given for cyclophilin A (CypA)?
A: infection and activation of MDDC (HIV-2 capsid (CA)): has the potential to infect and activate MDDC in a CypA-dependent manner; CD86 expression in MDDC infected with HIVGFP(G)+SIVVLP(G), Cyclosporin A added at different times [1]: Up to 24 h, Cyclosporin A (CsA) reduces CD86 expression; CD86 up-regulation in MDDC after shRNA knockdown of CypA [1]: prevented CD86 up-regulation following infection with HIV-1 (HDVIRESRFP(G), encoding the reporter RFP), but not following treatment with LPS; MDDC activation (CD86 up-regulation) under Cyclosporin A [1]: prevented MDDC activation following infection with HIVGFP(G) and SIVVLP(G), but not following treatment with LPS; CD86 expression in infected MDDC [2]: resulted in substantially reduced CD86 expression at similar levels of infection

— patent US20110159025
